These results are taken from patent US20170131280A1 (GENERAL HOSPITAL, published 2017).

The target of assay [1] is mTor, endogenous protein of murine BM cells (mouse, UniProt Q9JLN9 1-2549). As to the kind of experiment: co-immunoprecipitation from BM cell lysates, western blot (FIG. 1E). On the procedure: (§1) Rictor interaction required the C-terminal portion of SAKT that encompass the cytoplasmic region.
(§2) Protein Analyses. For immunoblotting, cells were lysed in RIPA buffer (Cell Signaling Technology) supplemented with HALT™ protease and phosphatase inhibitor cocktails (Thermo Scientific). Western blot analysis was carried out according to standard methods (8). Equal amounts of total protein from lysates were subjected to SDS-PAGE, transferred to PVDF membrane (Invitrogen), and membranes were probed by overnight incubation with appropriate primary antibodies. Bound antibodies were visualized with HRP-conjugated secondary antibodies and ECL detection reagent (GE Healthcare) and quantification of protein bands (Multigauge V3.0, Fujifilm). For standard immunoprecipitation experiments, proteins were extracted by incubation on ice in IP Lysis Buffer and all protein extracts were pre-cleared with Protein-A/G agarose (Santa Cruz Biotechnology) and incubated with Protein A/G agarose bound with antibodies against FLAG M2 (Sigma), Rictor (#9476, Cell Signaling Technology), and SAKT (Santa Cruz Biotechnology) or control IgG from mouse, and rabbit at 4° C. Immunoprecipitates were washed four times with lysis buffer and boiled for 10 minutes in 1× LDS sample buffer (Invitrogen). The eluted proteins were immunoblotted with the antibodies indicated above. […]

Assay [2] concerns the target Raptor, endogenous protein of murine BM cells (mouse, UniProt Q8K4Q0 1-1335). The assay is described as above. The procedure: as §1, §2
Assay [3] addresses Raptor, endogenous protein of 293T cells (UniProt Q8N122 1-1335). As to the kind of experiment: co-immunoprecipitation from 293T cell lysates, western blot (FIG. 1E). On the procedure:
as §1, §2
Background: In western blotting, separated proteins are transferred to a membrane and probed.

Assay [4] addresses mTor, endogenous protein of 293T cells (human, UniProt P42345 1-2549). The assay is described as above. On the procedure:
as §1, §2

Sequence of Raptor, endogenous protein of murine BM cells (Q8K4Q0 whole entry): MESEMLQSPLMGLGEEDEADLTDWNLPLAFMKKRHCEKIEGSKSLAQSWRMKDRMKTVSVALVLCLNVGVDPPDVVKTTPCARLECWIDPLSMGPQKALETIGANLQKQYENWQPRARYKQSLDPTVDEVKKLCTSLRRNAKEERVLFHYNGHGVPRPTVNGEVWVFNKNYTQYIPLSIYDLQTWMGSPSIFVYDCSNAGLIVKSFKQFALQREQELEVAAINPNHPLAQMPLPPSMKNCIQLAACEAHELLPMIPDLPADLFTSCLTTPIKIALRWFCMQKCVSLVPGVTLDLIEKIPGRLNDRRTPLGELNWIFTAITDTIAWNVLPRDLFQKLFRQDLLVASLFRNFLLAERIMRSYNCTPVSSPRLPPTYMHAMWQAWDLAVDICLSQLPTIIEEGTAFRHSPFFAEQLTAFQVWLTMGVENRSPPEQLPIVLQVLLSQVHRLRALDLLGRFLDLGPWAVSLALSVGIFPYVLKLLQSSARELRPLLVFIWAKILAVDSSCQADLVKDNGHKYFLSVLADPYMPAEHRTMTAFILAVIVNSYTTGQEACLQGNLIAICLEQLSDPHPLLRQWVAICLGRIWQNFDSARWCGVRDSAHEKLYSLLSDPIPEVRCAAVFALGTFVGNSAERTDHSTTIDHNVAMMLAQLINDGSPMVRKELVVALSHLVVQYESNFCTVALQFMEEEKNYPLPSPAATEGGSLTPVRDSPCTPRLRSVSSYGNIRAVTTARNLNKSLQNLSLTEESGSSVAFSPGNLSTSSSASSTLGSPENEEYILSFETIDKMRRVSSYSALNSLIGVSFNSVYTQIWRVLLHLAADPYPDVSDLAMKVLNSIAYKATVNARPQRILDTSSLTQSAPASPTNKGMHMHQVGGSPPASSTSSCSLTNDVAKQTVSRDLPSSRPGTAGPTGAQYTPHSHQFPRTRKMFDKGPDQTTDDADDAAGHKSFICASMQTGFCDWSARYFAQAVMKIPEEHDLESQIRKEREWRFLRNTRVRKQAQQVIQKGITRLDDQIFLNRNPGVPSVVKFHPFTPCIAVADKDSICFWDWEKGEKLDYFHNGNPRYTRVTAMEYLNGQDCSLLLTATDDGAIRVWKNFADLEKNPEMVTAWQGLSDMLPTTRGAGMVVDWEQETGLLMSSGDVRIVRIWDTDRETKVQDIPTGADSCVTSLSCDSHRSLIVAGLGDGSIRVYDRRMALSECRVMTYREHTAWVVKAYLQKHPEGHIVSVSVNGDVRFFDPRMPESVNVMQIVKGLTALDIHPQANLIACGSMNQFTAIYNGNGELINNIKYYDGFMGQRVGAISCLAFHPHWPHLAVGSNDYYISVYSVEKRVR
Sequence of Raptor, endogenous protein of 293T cells (Q8N122 whole entry): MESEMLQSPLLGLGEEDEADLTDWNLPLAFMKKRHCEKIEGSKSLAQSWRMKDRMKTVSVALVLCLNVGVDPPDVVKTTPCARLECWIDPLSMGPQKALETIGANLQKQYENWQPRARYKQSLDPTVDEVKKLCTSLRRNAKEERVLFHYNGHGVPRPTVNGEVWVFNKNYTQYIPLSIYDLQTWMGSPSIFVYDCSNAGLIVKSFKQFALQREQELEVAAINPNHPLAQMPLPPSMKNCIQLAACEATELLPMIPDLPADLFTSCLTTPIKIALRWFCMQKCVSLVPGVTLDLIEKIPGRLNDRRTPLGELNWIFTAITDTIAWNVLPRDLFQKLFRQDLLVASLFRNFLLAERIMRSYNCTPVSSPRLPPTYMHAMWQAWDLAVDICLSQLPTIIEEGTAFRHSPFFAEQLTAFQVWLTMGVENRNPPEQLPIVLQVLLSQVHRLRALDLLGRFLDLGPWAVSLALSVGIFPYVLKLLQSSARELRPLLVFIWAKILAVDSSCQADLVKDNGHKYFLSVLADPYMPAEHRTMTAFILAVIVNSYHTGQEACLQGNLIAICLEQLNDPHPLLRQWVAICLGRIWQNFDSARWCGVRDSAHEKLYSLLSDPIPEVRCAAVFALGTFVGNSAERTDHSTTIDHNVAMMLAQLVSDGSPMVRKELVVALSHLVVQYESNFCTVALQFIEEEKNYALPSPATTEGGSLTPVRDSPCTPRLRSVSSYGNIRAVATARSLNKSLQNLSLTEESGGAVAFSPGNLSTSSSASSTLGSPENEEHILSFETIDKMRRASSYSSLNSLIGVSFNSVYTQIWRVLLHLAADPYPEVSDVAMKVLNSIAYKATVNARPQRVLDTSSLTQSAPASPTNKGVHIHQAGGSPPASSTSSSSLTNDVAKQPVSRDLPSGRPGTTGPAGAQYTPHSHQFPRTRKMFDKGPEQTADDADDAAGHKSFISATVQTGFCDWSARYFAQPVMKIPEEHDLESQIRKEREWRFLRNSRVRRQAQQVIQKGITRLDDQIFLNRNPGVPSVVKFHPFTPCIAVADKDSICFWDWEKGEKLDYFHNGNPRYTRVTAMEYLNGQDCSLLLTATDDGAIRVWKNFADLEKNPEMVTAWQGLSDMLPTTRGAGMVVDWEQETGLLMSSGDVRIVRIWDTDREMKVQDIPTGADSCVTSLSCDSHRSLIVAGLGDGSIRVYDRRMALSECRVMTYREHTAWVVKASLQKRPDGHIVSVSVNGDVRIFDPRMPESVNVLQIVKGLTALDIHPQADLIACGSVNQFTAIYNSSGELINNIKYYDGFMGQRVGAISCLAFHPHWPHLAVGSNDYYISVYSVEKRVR

B1: Suppressor of AKT (SAKT), endogenous protein of murine bone marrow (BM) cells (receptor, mouse, UniProt Q8BT18 48-775, looked up)
chain: FPKVERRETAQEYAEKEQSQKMNTDDQENISFAPKYMLQQMSSEAPMVLSEGPSEIPLIKVFSVNKESHLPGAGLLHPTSPGVYSSSEPVVSASEQEPGPSLLERMSSEHSLSKVMLTVAVSSPASLNPDQEGPYNSLSTQPIVAAVTDVTHGSLDYLDNQLFAAKSQEAVSLGNSPSSSINTKEPEIIKADAAMGTTVVPGVDSTGDMEPDRERPSEMAADDGQSTTTKYLVTIPNNFLTTEPTAGSILGDAKVTVSVSTAGPVSSIFNEEWDDTKFESISRGRPPEPGDNAETQMRTKPPHGTYESFEGTEESPSSTAVLKVAPGHLGGEPALGTALVTALGDERSPVLTHQISFTPMSLAEDPEVSTMKLFPSAGGFRASTQGDRTQLSSETAFSTSQYESVPQQEAGNVLKDITQERKMATQAMNTTSPVVTQEHMATIEVPRGSGEPEEGMPSLSPVPAEVADAELSRRGESLATPASTTVVPLSLKLTSSMEDLMDTITGPSEEFIPVLGSPMAPPAMTVEAPTISSALPSEGRTSPSISRPNTAASYGLEQLESEEVEDDEDEEDEEDEEEEEEDEEDEEDEEDKETDSLYKDFDGDTEPPGFTLPGITSQEPDIRSGSMDLLEVATYQVPETIEWEQQNQGLVRSWMEKLKDKAGYMSGMLVPVGVGIAGALFILGALYSIKVMNRRRRNGFKRHKRKQREFNSMQDRVMLLADSSEDEF
notes: Endogenous protein immunoprecipitated from murine BM cell lysates; also called C14ORF37
B1: the binding result in assay [1] and in assay [2] was “no binding” throughout.

B2: Suppressor of AKT (SAKT), endogenous protein of 293T cells (receptor, UniProt Q86TY3 28-774, looked up)
chain: FPKIERRREIAHVHAEKGQSDKMNTDDLENSSVTSKQTPQLVVSEDPMMMSAVPSATSLNKAFSINKETQPGQAGLMQTERPGVSTPTESGVPSAEEVFGSSQPERISPESGLAKAMLTIAITATPSLTVDEKEELLTSTNFQPIVEEITETTKGFLKYMDNQSFATESQEGVGLGHSPSSYVNTKEMLTTNPKTEKFEADTDHRTTSFPGAESTAGSEPGSLTPDKEKPSQMTADNTQAAATKQPLETSEYTLSVEPETDSLLGAPEVTVSVSTAVPAASALSDEWDDTKLESVSRIRTPKLGDNEETQVRTEMSQTAQVSHEGMEGGQPWTEAAQVALGLPEGETHTGTALLIAHGNERSPAFTDQSSFTPTSLMEDMKVSIVNLLQSTGDFTESTKENDALFFLETTVSVSVYESEADQLLGNTMKDIITQEMTTAVQEPDATLSMVTQEQVATLELIRDSGKTEEEKEDPSPVSDVPGVTQLSRRWEPLATTISTTVVPLSFEVTPTVEEQMDTVTGPNEEFTPVLGSPVTPPGIMVGEPSISPALPALEASSERRTVVPSITRVNTAASYGLDQLESEEGQEDEDEEDEEDEDEEEEDEEEDEEDKDADSLDEGLDGDTELPGFTLPGITSQEPGLEEGNMDLLEGATYQVPDALEWEQQNQGLVRSWMEKLKDKAGYMSGMLVPVGVGIAGALFILGALYSIKVMNRRRRNGFKRHKRKQREFNSMQDRVMLLADSSEDEF
notes: also called C14ORF37
For the molecule B2, the binding result in assay [3] and in assay [4] was “no binding” each time.
